Results reported in patent US20230312724A1 (KADMON, published 2023).
Positions count from the first letter of the chain named.

T1: human B7-H4-his (human, UniProt Q7Z7D3 25-259)
T1 construct: also called hB7-H4-his; hB7-H4 his; not shown: his tag
T1 sequence: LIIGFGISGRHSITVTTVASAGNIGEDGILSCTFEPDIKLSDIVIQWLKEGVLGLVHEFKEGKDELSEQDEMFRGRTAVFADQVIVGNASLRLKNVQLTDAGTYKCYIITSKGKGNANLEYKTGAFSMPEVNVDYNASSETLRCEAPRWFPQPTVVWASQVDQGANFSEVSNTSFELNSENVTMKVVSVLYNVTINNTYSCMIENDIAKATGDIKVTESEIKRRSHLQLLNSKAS

T2: mouse B7-H4-his (mouse, UniProt Q7TSP5 25-257)
T2 construct: also called mB7-H4-his; mB7-H4-His; not shown: his tag
T2 sequence: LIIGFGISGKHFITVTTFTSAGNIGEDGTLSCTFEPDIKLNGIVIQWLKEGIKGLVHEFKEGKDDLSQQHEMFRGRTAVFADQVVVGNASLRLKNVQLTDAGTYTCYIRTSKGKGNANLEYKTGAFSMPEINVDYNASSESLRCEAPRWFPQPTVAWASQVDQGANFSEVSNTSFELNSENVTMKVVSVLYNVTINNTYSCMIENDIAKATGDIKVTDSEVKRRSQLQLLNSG

T3: hB7-H4 (soluble human B7-H4, construct not named) (human, UniProt Q7Z7D3 25-259, limits assumed)
T3 construct: also called soluble hB7-H4
T3 sequence: T1 sequence

T4: mB7-H4 (soluble mouse B7-H4, construct not named) (mouse, UniProt Q7TSP5 25-257, limits assumed)
T4 sequence: T2 sequence

T5: human B7-H4 expressed on cells (human, UniProt Q7Z7D3 25-282)
T5 construct: Transfected CHO cells or tumor cell lines that carry hB7-H4; also called cellular hB7-H4
T5 sequence: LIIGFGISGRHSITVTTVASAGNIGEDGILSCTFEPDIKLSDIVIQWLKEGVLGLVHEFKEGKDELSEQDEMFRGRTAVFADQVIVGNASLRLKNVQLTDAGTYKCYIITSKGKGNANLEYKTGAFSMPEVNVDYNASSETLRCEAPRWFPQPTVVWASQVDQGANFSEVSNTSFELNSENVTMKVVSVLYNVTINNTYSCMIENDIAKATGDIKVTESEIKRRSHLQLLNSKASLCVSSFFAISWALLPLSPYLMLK

T6: mouse B7-H4 expressed on cells (mouse, UniProt Q7TSP5 25-257)
T6 construct: also called cellular mB7-H4; mB7-H4/CT26
T6 sequence: T2 sequence

B1: 9D11/9D11 (antibody, human IgG1, V domains shown)
VH: QVQLVQSGAEVKKPGASVKVSCKASGYTFTSYGISWVRQAPGQGLEWVGVINPNGGTTTYAQTFQGRVTMTRDTSTSTVYMELSSLRSEDTAVYYCARTGYSSGWAFDYWGRGTLVTVSS
VL: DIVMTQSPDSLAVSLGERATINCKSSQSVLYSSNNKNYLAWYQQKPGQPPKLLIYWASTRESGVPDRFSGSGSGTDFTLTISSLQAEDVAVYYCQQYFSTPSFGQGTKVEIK
B2: 5F4/5F4 (antibody, human IgG1, V domains shown)
VH: EVQLLESGGGLVKPGGSLRLSCAASGFTFSSYAMHWVRQAPGKGLEWVSAIGGSGRTTYYADSVKGRFTISRDDSKNTLYLQMNSLKTEDTAVYYCARERGYSYGQIDYWGQGTLVTVSS
VL: DIVMTQSPLSLPVTPGEPASISCRSSQSLLHSNGYNYLDWYLQKPGQSPQLLIYAASSLQSGVPDRFSGSGSGTDFTLKISRVEAEDVGVYYCMQGAHWPLTFGQGTKVEIK
B3: 5E4/5E4 (antibody, human IgG1, V domains shown)
VH: QVQLVQSGAEVKKPGASVKVSCKASGYTFTSYDINWVRQAPGQGLEWMGWMNPNSGNTGYAQKFQGRVTMTRDTSTSTVYMELSSLRSEDTAVYYCARGELWFGEFDYYYYYGMDVWGQGTTVTVSS
VL: DIQMTQSPSSLSASVGDRVTITCRASQSISSYLNWYQQKPGKAPKLLIYGASSLQSGVPSRFSGSGSGTDFTLTISSLQPEDFATYYCQQADRIPFTFGRGTKVEIK
B4: 5G6/5G6 (antibody, human IgG1, V domains shown)
VH: QVQLVQSGAEVKKPGASVKVSCKASGYTFTSYYMHWVRQAPGQGLEWLGWVNPNTGTTRFAQKFQGRVTMTRDTSTSTVYMELSSLRSEDTAVYYCARDANYYYGMDVWGQGTMVTVSS
VL: DIVMTQSPDSLAVSLGERATINCKSSQSVLYSSNNKNYLAWYQQKPGQPPKLLIYWASTRESGVPDRFSGSGSGTDFTLTISSLQAEDVATYYCQKYNSALPITFGQGTRLEIK
B5: 9E1/9E1 (antibody, V domains shown)
VH: QVQLVQSGAEVKKPGASVKVSCKASGYTFTGYYLHWVRQAPGQGLEWMGWINPNSGGTNSAQRFQGRVTMTRDTSTSTVYMELSSLRSEDTAVYYCARVRGYEGGMDVWGQGTTVTVSS
VL: not shown
B6: 15B11/15B11 (antibody, V domains shown)
VH: QVQLVQSGAEVKKPGASVKVSCKASGYTFTGYYIHWVRQAPGQGLEWMGWMNPHSGHTGYAQNLQGRVTMTRDTSTSTVYMELSSLRSEDTAVYYCARVKVTTGFDYWGQGTLVTVSS
VL: not shown
B7: 24B6/24B6 (antibody, human IgG1, V domains shown)
VH: QVQLVQSGAEVKKPGASVKVSCKASGYTFTGYYMHWVRQAPGQGLEWIGWMNPNSGDTGYAQKFQGRVTMTRDTSTSTVYMELSSLRSEDTAVYYCAKVGAYGGMDVWGQGTTVTVSS
VL: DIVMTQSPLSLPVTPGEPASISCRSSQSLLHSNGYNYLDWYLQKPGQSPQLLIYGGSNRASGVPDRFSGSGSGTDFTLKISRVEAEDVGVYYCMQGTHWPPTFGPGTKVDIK
B8: 30G4/30G4 (antibody, human IgG1, V domains shown)
VH: B7 VH with T30S, G31S, I48M, K98R, G100P, A101E, Y102T
VL: B2 VL with A55G, Q60H, A97T, L101P
B9: 24F4/24F4 (antibody, human IgG1, V domains shown)
VH: QVQLVQSGAEVKKPGSSVKVSCKASGYRFTGDYIHWVRQAPGQGLEWMGWMNPNSGNTGLAQKFQGRVTITADESTSTAYMELSSLRSEDTAVYYCARVLGFSGGMDVWGQGTTVTVSS
VL: B2 VL with Q60R, A97T, L101P, V109L
B10: 9D11/67C6 (antibody, human IgG1, V domains shown)
VH: B1 VH
VL: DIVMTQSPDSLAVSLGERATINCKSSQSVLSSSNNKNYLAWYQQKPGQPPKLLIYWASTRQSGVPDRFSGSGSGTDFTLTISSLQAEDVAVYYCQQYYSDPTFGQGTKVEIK
notes: 9D11 VH with 67C6 VL
B11: 9D11/67G3 (antibody, human IgG1, V domains shown)
VH: B1 VH
VL: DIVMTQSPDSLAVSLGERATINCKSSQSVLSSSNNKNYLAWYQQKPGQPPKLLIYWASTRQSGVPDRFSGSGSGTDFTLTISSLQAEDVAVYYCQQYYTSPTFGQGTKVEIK
notes: 9D11 VH with 67G3 VL
B12: 9D11/67H9 (antibody, human IgG1, V domains shown)
VH: B1 VH
VL: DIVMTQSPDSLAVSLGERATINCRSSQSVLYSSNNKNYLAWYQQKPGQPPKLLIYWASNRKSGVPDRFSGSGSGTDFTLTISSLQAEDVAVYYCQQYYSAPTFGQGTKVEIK
notes: 9D11 VH with 67H9 VL

Biological target: T7, human B7-H4-Fc (human)
T7 construct: also called hB7-H4-Fc; hB7-H4 Fc
T7 sequence (chain, as listed by the source): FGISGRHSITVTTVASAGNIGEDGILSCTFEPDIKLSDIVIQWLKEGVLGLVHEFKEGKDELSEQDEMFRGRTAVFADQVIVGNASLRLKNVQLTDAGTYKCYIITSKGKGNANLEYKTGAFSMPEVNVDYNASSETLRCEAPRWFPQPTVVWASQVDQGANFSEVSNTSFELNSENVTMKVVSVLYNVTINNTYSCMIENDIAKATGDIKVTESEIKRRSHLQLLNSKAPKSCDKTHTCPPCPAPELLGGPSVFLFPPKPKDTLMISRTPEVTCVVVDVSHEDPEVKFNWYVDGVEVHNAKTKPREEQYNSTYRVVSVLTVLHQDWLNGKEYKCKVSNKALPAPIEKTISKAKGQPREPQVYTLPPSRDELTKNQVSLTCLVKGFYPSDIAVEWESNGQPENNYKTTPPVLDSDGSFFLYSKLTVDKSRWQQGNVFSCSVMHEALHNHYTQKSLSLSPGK
Experiment: SPR (Biacore)
Experimental: (§1) Surface plasmon resonance experiments were performed using a Biacore T200 instrument equipped with CM5 sensor chips. The system was equilibrated in running buffer HBS-EP pH 7.4. The ligands were immobilized using amine-coupling chemistry. The surfaces of flow cells one through four were activated for 5 min using an amine coupling kit at a flow rate of […]. The ligands (human B7-H4-Fc, human B7-H4-hism and mouse B7-H4-Fc; at a concentration of 5 μg/ml in 10 mM sodium acetate, pH 5.0) were immobilized at a density of 50-100 RU on flow cell 2, 3, 4 respectively. Flow cell 1 was left blank to serve as a reference surface. All flow cell surfaces were blocked with a 5 min injection of 1 M ethanolamine, pH 8.0. To collect kinetic binding data, the respective analyte (diluted in 1×HBS-EP buffer, pH 7.4) was injected over the four flow cells at concentrations of 100 nM to 0.1 nM at a flow rate of […] and at a temperature of 25° C. The protein complex was allowed to associate and dissociate for 180 seconds and 1000 or 1200 seconds, respectively. The surfaces were regenerated with a 30 second injection of 1.5 M NaCl/0.05 M NaOH. The data were fit to a simple 1:1 interaction model using the Langmuir fit option available within the Biaevaluaton software
(§2) The kinetics for binding of the different antibodies to their targets were examined using Biacore analysis.

Binder	Kd
B1	1.8 nM
B2	15 nM
B3	11.7 nM
B4	12.1 nM
B5	13.7 nM
B6	4.26 nM

Biological target: T1, human B7-H4-his
Experiment: SPR (Biacore)
Experimental: as §1, §2

Binder	Kd
B7	5.3 nM
B8	6.05 nM
B9	194 nM
B1	0.85 nM
B2	16.6 nM
B3	10 nM
B4	5.19 nM
B5	7.91 nM
B6	5.17 nM

Biological target: T8, mouse B7-H4-Fc (mouse; human)
T8 construct: also called mB7-H4-Fc; mB7-H4-hFc
T8 sequence (chain, as listed by the source): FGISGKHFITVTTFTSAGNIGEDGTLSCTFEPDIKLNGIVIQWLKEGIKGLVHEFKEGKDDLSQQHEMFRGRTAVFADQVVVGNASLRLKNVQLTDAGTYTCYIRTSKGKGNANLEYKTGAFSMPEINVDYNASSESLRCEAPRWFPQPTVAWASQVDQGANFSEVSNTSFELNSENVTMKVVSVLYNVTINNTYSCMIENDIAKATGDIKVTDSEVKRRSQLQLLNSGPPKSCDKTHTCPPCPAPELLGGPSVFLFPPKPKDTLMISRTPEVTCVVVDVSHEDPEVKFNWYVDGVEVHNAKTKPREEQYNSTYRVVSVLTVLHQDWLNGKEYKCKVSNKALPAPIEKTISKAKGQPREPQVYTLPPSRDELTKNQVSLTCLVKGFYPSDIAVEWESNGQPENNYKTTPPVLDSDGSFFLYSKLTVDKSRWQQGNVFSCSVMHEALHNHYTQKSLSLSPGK
Experiment: SPR (Biacore)

Binder	Kd
B1	0.642 nM
B2	11.9 nM
B3	14.1 nM
B4	13.1 nM
B5	10.6 nM
B6	3.55 nM

Biological target: T2, mouse B7-H4-his
Experiment: SPR (Biacore)

Binder	Kd
B7	3.4 nM
B8	6.38 nM
B9	29.2 nM
B1	1.52 nM
B2	15 nM
B3	9.09 nM
B4	7.83 nM
B5	12.4 nM
B6	6.17 nM

Biological target: T3, hB7-H4 (soluble human B7-H4, construct …)
Experiment: ELISA, hB7-H4
Experimental: (§3) About 1-2 μg/ml of human or mouse B7-H4-Fc (or his-tagged) was immobilized on ELISA plates (Immuno 2HB, Thermo scientific, cat #3455) at 4° C. overnight. After blocking the plates with 3% PBS+milk, serial diluted antibodies were added to the blocked plates and incubated at RT for 1-1.5 h. After washing the plates with PBS-T (0.05%), horse radish peroxidase (HRP)-conjugated antibody targeting the hFab was added to the plate. Signals were developed by adding 3,3′,5,5′-Tetramethylbenzidine (TMB (followed 1N of H₂SO₄ to stop the reaction. The OD at 450 nm was read by ELISA plate reader (Infinite M1000 from TECAN). GraphPad from Prism was used to plot OD450 vs. antibody concentration curve and to calculate the EC50 values.

Binder	EC50
B1	0.18 nM
B10	0.115 nM
B11	0.261 nM
B12	0.1 nM

Biological target: T3, hB7-H4 (soluble human B7-H4, construct …)
Experiment: SPR (Biacore)
Experimental: as §1

Binder	Kd
B1	5.97 nM
B10	15 nM
B11	10.6 nM
B12	7.09 nM

Biological target: T4, mB7-H4 (soluble mouse B7-H4, construct …)
Experiment: SPR (Biacore)
Experimental: as §1

Binder	Kd
B1	4.78 nM
B10	2.8 nM
B11	8.46 nM
B12	6.08 nM

Biological target: T4, mB7-H4 (soluble mouse B7-H4, construct …)
Experiment: ELISA, mB7-H4
Experimental: as §3

Binder	EC50
B1	0.104 nM
B10	0.082 nM
B11	0.162 nM
B12	0.105 nM

Biological target: T5, human B7-H4 expressed on cells
Experiment: flow cytometry, SK-BR-3 cells
Experimental: (§4) Cells were harvested, washed once, and then re-suspended to the concentration of 1×10⁶ cells/ml in ice cold FACS Buffer. 25 μl of cell suspension was added to each well of a 96-well round-bottom microliter plate. Serially diluted antibodies or fusion proteins were added to each well and incubated for 1 hour at 4° C. Cells were washed three times by centrifugation at 1500 rpm for 5 minutes, and then stained with secondary antibody (1:200 dilution) for 30 min at 4° C. in the dark. Cells were washed once, re-suspended in 100 μl PBS buffer and then analyzed using Guava Flow Cytometry EasyCyte system.

Binder	EC50
B1	126 nM
B10	9.2 nM
B11	22.5 nM
B12	24 nM

Biological target: T7, human B7-H4-Fc
Experiment: ELISA, coated hB7-H4-Fc
Experimental: as §3

Binder	EC50 (read off the curve)
B2	~0.1 nM
B3	~0.1 nM

Biological target: T8, mouse B7-H4-Fc
Experiment: ELISA, coated mB7-H4-Fc
Experimental: as §3

Binder	binding result	EC50 (read off the curve)
B7	binds	
B8	binds	
B9	binds	
B10	binds	
B11	binds	
B2		~0.1 nM
B3		~0.1 nM

Biological target: T6, mouse B7-H4 expressed on cells
Experiment: flow cytometry, mB7-H4/CT26 cells
Experimental: as §4

Binder	EC50
B1	122 nM
B10	45.7 nM
B11	45.3 nM
B12	54.3 nM

Biological target: T9, IgV domain of human B7-H4-Fc (human)
T9 construct: also called hB7-H4 IgV domain
T9 sequence (chain, as listed by the source): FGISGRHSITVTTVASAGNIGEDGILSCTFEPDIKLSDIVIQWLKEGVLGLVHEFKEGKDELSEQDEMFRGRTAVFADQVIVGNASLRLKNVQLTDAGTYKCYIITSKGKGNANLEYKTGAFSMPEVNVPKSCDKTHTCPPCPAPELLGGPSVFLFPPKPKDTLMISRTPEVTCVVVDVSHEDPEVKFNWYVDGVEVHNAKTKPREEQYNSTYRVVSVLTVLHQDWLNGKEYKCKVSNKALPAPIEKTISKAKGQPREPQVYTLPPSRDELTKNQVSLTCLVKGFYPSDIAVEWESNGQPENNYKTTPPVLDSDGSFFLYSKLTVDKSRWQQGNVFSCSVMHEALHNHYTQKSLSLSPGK
Experiment: ELISA, coated hB7-H4 IgV domain
Experimental: as §3

Binder	binding result
B2	no binding (tested: 20 nM)
B3	no binding (tested: 20 nM)
B4	no binding (tested: 20 nM)
B5	no binding (tested: 20 nM)

Biological target: T10, IgV domain of mouse B7-H4-Fc (mouse; human)
T10 construct: also called mB7-H4 IgV domain
T10 sequence (chain, as listed by the source): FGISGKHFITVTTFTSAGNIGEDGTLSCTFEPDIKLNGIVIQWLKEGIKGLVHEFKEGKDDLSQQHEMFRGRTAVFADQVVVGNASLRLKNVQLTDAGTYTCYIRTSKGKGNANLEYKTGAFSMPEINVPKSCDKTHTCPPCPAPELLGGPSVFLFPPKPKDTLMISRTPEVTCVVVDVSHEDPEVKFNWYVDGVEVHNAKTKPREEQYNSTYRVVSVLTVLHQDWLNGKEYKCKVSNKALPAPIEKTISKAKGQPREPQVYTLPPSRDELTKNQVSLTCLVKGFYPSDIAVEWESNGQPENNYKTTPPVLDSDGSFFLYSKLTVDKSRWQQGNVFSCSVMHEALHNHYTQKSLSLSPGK
Experiment: ELISA, coated mB7-H4 IgV domain
Experimental: as §3

Binder	binding result
B2	no binding (tested: 20 nM)
B3	no binding (tested: 20 nM)
B4	no binding (tested: 20 nM)
B5	no binding (tested: 20 nM)
